In PMC9482650, “Quantitative fragmentomics allow affinity mapping of interactomes” (Nature Communications, 2022):
One block for each binder: values may come before it.

What was measured:
Assay in all cases: holdup assay
Parameters in all cases: key: below the threshold = too weak to quantify, mostly under pKd 3.1 to 4
GRIP2_7, Q9C0E4 = target: GRIP2_7, Q9C0E4
DLG1_3, Q12959 = target: DLG1_3, Q12959
GORASP1, Q9BQQ3 = target: GORASP1, Q9BQQ3
FRMPD2_2, Q68DX3 = target: FRMPD2_2, Q68DX3
LIN7C, Q9NUP9 = target: T1, LIN7C, Q9NUP9
T1 sequence (Q9NUP9 88-185, limits assumed, looked up): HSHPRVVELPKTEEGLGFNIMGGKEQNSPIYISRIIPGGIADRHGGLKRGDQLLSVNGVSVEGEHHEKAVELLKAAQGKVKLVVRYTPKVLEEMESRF

HTRA3, P83110 = target: T2, HTRA3, P83110
T2 sequence (P83110 354-453, limits assumed, looked up): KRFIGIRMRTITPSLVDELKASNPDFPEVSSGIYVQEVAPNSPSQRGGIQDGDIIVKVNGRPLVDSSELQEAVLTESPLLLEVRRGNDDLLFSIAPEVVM

SYNJ2BP, P57105 = target: T3, SYNJ2BP, P57105
T3 sequence (P57105 8-110, limits assumed, looked up): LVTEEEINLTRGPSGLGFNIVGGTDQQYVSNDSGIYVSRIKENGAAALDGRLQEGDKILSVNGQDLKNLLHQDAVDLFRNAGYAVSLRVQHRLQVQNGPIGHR

MAGI2_2, Q86UL8 = target: MAGI2_2, Q86UL8
GORASP2, Q9H8Y8 = target: GORASP2, Q9H8Y8
SCRIB_1, Q14160 = target: SCRIB_1, Q14160
SNTA1, Q13424 = target: T4, SNTA1, Q13424
T4 sequence (Q13424 82-180, limits assumed, looked up): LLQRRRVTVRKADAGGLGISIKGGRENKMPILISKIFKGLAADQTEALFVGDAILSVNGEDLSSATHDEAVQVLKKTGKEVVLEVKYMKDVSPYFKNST

CARD11, Q9BXL7 = target: T5, CARD11, Q9BXL7
T5 sequence (Q9BXL7 662-765, limits assumed, looked up): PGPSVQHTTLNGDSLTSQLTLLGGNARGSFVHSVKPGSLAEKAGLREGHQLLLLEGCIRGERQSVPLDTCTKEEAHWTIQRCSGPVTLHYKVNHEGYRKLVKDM

GRIP1_7, Q9Y3R0 = target: T6, GRIP1_7, Q9Y3R0
T6 sequence (Q9Y3R0 999-1096, limits assumed, looked up): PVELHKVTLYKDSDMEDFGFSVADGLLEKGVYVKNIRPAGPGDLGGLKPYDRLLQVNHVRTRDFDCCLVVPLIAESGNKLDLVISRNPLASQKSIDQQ

MAGI2_5, Q86UL8 = target: MAGI2_5, Q86UL8
HTRA2, O43464 = target: HTRA2, O43464
AHNAK1, Q09666 = target: AHNAK1, Q09666
GRID2IP_1, A4D2P6 = target: GRID2IP_1, A4D2P6
MAST1, Q9Y2H9 = target: MAST1, Q9Y2H9
MPDZ_12, O75970 = target: T7, MPDZ_12, O75970
T7 sequence (O75970 1857-1958, limits assumed, looked up): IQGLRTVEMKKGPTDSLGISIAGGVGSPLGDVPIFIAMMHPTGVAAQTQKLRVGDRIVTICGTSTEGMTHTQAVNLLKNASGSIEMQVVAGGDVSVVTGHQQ

DLG4_3, P78352 = target: DLG4_3, P78352
DLG2_2, Q15700 = target: DLG2_2, Q15700
GRIP2_5, Q9C0E4 = target: GRIP2_5, Q9C0E4
LDB3, O75112 = target: LDB3, O75112
TIAM2, Q8IVF5 = target: T8, TIAM2, Q8IVF5
T8 sequence (Q8IVF5 885-986, limits assumed, looked up): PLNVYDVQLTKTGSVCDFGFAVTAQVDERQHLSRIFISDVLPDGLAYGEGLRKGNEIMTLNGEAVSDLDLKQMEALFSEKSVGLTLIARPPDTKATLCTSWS

APBA3_1, O96018 = target: T9, APBA3_1, O96018
T9 sequence (O96018 389-490, limits assumed, looked up): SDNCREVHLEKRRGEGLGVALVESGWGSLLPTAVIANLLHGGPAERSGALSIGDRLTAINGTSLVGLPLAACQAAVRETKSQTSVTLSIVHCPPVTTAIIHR

GRID2IP_2, A4D2P6 = target: GRID2IP_2, A4D2P6
NHERF2_2, Q15599 = target: NHERF2_2, Q15599
SNTG2, Q9NY99 = target: T10, SNTG2, Q9NY99
T10 sequence (Q9NY99 68-166, limits assumed, looked up): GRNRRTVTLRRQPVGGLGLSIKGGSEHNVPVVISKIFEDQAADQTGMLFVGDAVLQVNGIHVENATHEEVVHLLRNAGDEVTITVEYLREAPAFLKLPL

[1] = plain residues with an end cap or a label only (N-terminal biotin on a linker: gsgsgs; C-terminal amide)
[2] = plain residues with an end cap or a label only (N-terminal biotin on a linker: ttds)

Chain of GORASP1, Q9BQQ3 (Q9BQQ3 1-208): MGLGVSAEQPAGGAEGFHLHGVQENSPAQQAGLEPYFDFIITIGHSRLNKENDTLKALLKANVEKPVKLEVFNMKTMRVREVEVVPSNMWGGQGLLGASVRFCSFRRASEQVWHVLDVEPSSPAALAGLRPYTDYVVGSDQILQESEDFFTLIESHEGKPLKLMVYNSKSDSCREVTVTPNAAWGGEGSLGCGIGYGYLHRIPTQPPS
Chain of GRIP2_5, Q9C0E4 (Q9C0E4 544-642): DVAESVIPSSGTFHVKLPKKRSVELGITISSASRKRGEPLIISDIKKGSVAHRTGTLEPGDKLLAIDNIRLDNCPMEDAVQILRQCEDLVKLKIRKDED
Chain of LDB3, O75112 (O75112 1-94): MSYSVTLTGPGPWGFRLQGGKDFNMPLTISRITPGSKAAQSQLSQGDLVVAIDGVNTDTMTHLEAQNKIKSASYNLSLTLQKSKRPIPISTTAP
Chain of DLG2_2, Q15700 (Q15700 189-283): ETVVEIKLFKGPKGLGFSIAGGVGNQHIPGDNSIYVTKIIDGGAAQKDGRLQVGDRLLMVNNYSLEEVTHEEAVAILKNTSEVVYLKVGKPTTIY
Chain of MAGI2_2, Q86UL8 (Q86UL8 410-522): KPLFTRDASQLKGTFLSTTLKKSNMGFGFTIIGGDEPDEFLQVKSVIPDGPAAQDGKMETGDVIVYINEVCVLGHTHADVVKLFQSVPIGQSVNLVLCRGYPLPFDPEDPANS
Chain of GRID2IP_2, A4D2P6 (A4D2P6 272-370): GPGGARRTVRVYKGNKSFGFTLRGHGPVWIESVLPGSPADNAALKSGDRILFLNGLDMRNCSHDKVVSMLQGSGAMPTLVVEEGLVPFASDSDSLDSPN
Chain of DLG4_3, P78352 (P78352 306-403): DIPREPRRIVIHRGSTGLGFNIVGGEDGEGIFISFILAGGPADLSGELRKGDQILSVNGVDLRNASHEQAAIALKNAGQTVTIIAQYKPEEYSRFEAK
Chain of DLG1_3, Q12959 (Q12959 457-571): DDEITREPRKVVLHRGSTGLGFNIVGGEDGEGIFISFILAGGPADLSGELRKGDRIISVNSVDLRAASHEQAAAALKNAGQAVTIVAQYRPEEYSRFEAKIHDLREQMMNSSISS
Chain of NHERF2_2, Q15599 (Q15599 142-238): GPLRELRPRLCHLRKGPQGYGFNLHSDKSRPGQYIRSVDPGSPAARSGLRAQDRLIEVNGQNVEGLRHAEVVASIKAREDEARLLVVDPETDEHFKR
Chain of HTRA2, O43464 (O43464 355-458): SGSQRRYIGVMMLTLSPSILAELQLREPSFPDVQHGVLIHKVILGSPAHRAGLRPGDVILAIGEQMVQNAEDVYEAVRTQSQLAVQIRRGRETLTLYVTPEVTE
Chain of FRMPD2_2, Q68DX3 (Q68DX3 944-1038): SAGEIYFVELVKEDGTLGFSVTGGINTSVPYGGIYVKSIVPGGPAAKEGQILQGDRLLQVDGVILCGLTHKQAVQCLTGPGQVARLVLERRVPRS
Chain of GRID2IP_1, A4D2P6 (A4D2P6 1-87): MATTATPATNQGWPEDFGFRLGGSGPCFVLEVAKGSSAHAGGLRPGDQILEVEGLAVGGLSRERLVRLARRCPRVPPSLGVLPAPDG
Chain of MAGI2_5, Q86UL8 (Q86UL8 915-1017): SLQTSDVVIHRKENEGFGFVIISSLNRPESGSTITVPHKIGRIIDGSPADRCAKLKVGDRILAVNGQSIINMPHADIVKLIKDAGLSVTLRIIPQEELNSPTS
Chain of MAST1, Q9Y2H9 (Q9Y2H9 962-1065): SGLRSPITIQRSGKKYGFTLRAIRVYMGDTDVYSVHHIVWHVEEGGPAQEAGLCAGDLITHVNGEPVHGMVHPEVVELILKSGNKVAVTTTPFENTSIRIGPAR
Chain of AHNAK1, Q09666 (Q09666 4-100): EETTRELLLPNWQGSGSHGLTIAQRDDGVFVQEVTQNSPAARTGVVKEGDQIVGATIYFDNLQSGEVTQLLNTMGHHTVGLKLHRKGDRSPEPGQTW
Chain of GRIP2_7, Q9C0E4 (Q9C0E4 934-1023): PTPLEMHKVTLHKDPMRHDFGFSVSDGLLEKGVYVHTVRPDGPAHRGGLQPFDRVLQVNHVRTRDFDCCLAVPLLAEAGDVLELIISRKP
Chain of SCRIB_1, Q14160 (Q14160 718-814): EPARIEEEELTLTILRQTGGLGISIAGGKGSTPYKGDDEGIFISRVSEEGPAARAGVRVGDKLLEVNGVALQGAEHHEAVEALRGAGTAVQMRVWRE

pKd (GRIP2_7, Q9C0E4; [1]): below the threshold | pKd (DLG1_3, Q12959; [1]): below the threshold | pKd (GORASP1, Q9BQQ3; [1]): below the threshold | pKd (FRMPD2_2, Q68DX3; [1]): below the threshold | pKd (LIN7C, Q9NUP9; [1]): 3.85 | pKd (HTRA3, P83110; [1]): below the threshold | pKd (SYNJ2BP, P57105; [1]): below the threshold | pKd (MAGI2_2, Q86UL8; [1]): below the threshold | pKd (GORASP2, Q9H8Y8; [1]): below the threshold | pKd (SCRIB_1, Q14160; [1]): 4.3 | pKd (SNTA1, Q13424; [1]): below the threshold | pKd (CARD11, Q9BXL7; [1]): below the threshold | pKd (GRIP1_7, Q9Y3R0; [1]): below the threshold | pKd (MAGI2_5, Q86UL8; [1]): below the threshold | pKd (HTRA2, O43464; [1]): below the threshold | pKd (AHNAK1, Q09666; [1]): below the threshold | pKd (GRID2IP_1, A4D2P6; [1]): below the threshold | pKd (MAST1, Q9Y2H9; [1]): below the threshold | pKd (MPDZ_12, O75970; [1]): below the threshold | pKd (DLG4_3, P78352; [1]): below the threshold | pKd (DLG2_2, Q15700; [1]): below the threshold | pKd (GRIP2_5, Q9C0E4; [1]): below the threshold | pKd (LDB3, O75112; [1]): below the threshold | pKd (TIAM2, Q8IVF5; [1]): 3.98 | pKd (APBA3_1, O96018; [1]): below the threshold | pKd (GRID2IP_2, A4D2P6; [1]): below the threshold | pKd (NHERF2_2, Q15599; [1]): below the threshold | pKd (SNTG2, Q9NY99; [1]): below the threshold
B1: MLLT4_int, P55196 (peptide)
chain: YGIVQETTFDLGGDIH

pKd (GRIP2_7, Q9C0E4; [2]): below the threshold | pKd (DLG1_3, Q12959; [2]): 3.84 | pKd (GORASP1, Q9BQQ3; [2]): 3.55 | pKd (FRMPD2_2, Q68DX3; [2]): below the threshold | pKd (LIN7C, Q9NUP9; [2]): below the threshold | pKd (HTRA3, P83110; [2]): below the threshold | pKd (SYNJ2BP, P57105; [2]): 3.59 | pKd (MAGI2_2, Q86UL8; [2]): 4.6 | pKd (GORASP2, Q9H8Y8; [2]): 4.85 | pKd (SCRIB_1, Q14160; [2]): below the threshold | pKd (SNTA1, Q13424; [2]): below the threshold | pKd (CARD11, Q9BXL7; [2]): below the threshold | pKd (GRIP1_7, Q9Y3R0; [2]): below the threshold | pKd (MAGI2_5, Q86UL8; [2]): below the threshold | pKd (HTRA2, O43464; [2]): below the threshold | pKd (AHNAK1, Q09666; [2]): below the threshold | pKd (GRID2IP_1, A4D2P6; [2]): below the threshold | pKd (MAST1, Q9Y2H9; [2]): 3.86 | pKd (MPDZ_12, O75970; [2]): below the threshold | pKd (DLG4_3, P78352; [2]): 3.69 | pKd (DLG2_2, Q15700; [2]): below the threshold | pKd (GRIP2_5, Q9C0E4; [2]): below the threshold | pKd (LDB3, O75112; [2]): below the threshold | pKd (TIAM2, Q8IVF5; [2]): below the threshold | pKd (APBA3_1, O96018; [2]): below the threshold | pKd (GRID2IP_2, A4D2P6; [2]): 4.19 | pKd (NHERF2_2, Q15599; [2]): below the threshold | pKd (SNTG2, Q9NY99; [2]): 3.77
B2: DOCK4, Q8N1I0 (peptide)
chain: RPLPRKVSQL

pKd (GRIP2_7, Q9C0E4; [2]): below the threshold | pKd (DLG1_3, Q12959; [2]): below the threshold | pKd (GORASP1, Q9BQQ3; [2]): below the threshold | pKd (FRMPD2_2, Q68DX3; [2]): below the threshold | pKd (LIN7C, Q9NUP9; [2]): below the threshold | pKd (HTRA3, P83110; [2]): below the threshold | pKd (SYNJ2BP, P57105; [2]): 4.46 | pKd (MAGI2_2, Q86UL8; [2]): below the threshold | pKd (GORASP2, Q9H8Y8; [2]): below the threshold | pKd (SCRIB_1, Q14160; [2]): 4.02 | pKd (SNTA1, Q13424; [2]): below the threshold | pKd (CARD11, Q9BXL7; [2]): below the threshold | pKd (GRIP1_7, Q9Y3R0; [2]): 3.55 | pKd (MAGI2_5, Q86UL8; [2]): below the threshold | pKd (HTRA2, O43464; [2]): below the threshold | pKd (AHNAK1, Q09666; [2]): below the threshold | pKd (GRID2IP_1, A4D2P6; [2]): below the threshold | pKd (MAST1, Q9Y2H9; [2]): below the threshold | pKd (MPDZ_12, O75970; [2]): below the threshold | pKd (DLG4_3, P78352; [2]): below the threshold | pKd (DLG2_2, Q15700; [2]): 3.65 | pKd (GRIP2_5, Q9C0E4; [2]): below the threshold | pKd (LDB3, O75112; [2]): below the threshold | pKd (TIAM2, Q8IVF5; [2]): below the threshold | pKd (APBA3_1, O96018; [2]): below the threshold | pKd (GRID2IP_2, A4D2P6; [2]): below the threshold | pKd (NHERF2_2, Q15599; [2]): below the threshold | pKd (SNTG2, Q9NY99; [2]): below the threshold
B3: SLC2A1, P11166 (peptide)
chain: FHPLGADSQV
